These results are taken from US20220372125A1 (ASLAN PHARMACEUTICALS PTE, published 2022).

Assay [1] deals with T1, Mammalian expressed extracellular human RON protein (Gly25 to Thr957) with His-tag (human, UniProt Q04912 25-957).
T1 construct: Expressed in ExpiCHO cells, purified on nickel; Position of the His-tag is told inconsistently; Written as one chain; also called RON ECD; RON ECD antigen; not shown: His-tag
T1 sequence: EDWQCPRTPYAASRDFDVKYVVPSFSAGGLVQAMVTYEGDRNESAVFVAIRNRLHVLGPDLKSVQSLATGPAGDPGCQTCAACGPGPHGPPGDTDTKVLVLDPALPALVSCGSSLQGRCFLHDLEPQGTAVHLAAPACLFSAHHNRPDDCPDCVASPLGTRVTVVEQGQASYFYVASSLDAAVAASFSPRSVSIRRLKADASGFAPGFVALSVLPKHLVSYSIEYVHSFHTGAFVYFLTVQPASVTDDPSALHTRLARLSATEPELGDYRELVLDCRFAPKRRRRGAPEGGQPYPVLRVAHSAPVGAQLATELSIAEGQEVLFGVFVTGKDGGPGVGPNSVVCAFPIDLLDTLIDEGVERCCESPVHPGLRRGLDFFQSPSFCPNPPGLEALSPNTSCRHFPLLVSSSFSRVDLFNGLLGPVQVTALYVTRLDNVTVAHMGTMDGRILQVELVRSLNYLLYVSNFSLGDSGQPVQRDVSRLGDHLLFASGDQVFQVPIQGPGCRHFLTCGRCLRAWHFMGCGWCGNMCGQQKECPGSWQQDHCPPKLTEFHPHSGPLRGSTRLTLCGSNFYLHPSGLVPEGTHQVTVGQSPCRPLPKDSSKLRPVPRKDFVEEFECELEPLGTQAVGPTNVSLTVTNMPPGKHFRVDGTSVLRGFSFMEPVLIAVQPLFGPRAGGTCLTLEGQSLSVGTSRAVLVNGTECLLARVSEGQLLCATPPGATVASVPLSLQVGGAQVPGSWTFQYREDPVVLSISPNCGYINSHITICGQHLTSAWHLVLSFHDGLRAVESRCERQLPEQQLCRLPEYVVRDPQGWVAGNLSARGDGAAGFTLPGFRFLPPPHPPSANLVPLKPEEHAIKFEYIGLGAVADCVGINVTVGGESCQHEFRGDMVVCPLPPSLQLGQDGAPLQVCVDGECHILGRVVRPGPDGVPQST
Kind of assay: KinExA, fixed antigen format, antibody titrated into fixed RON ECD-His. From the text:
This limitation of the SPR method for highly avid antibodies has been described previously and the use of kinetic exclusion assay has been proposed as a way to overcome this limitation allowing measurements in the sub nanomolar range. We employed the Kinetic Exclusion assay (KinEXa) method to measure the Kd values of all of the new antibodies using a fixed concentration of the recombinant mammalian expressed protein as the target antigen and a twelve-point dilution curve of each antibody. We dropped antibody 9F6, in this assay as it seemed less avid than the other antibodies in preliminary SPR binding assays. The remaining seven antibodies gave exactly accurate results in duplicate analysis (FIG. 6).
(§1) Mammalian produced recombinant extracellular His-tag RON protein was used for affinity measurements. Affinity determinations were carried out in the fixed antigen format. Antibodies were titrated as two-fold dilutions into a fixed concentration of RON antigen. RON protein was detected using mouse monoclonal to 6×His-Tag (Dylight@650, Thermo Fisher). All affinity measurements were carried out using the KinExa 4000 (Sapidyne Instruments).
On the technique in general: In KinExA the mixture passes briefly over coated beads that capture the unbound partner.

The target in assay [2] is T1, Mammalian expressed extracellular human …. Kind of assay: KinExA, RON-HIS.
For assay [3] the target is unchanged. Description: KinExA, RON-HIS; 95% Confidence Level 2.52 x 106 to 6.93 x 106.
In assay [4] the target is RON (Macrophage stimulating protein receptor), full length, on cells (human, UniProt Q04912 25-1400). Kind of assay: cell-based or functional assay.
In assay [5] the target is T1, Mammalian expressed extracellular human …. Description: KinExA, RON-HIS; 95% Confidence Level 14.92 pM to 49.11 pM. The protocol:
as §1

For orientation: Kd means a measure of binding affinity in units of concentration. Broadly, the koff is a measure of how fast the partners let go of each other. Broadly, the kon is the rate constant with which the complex forms. Low readings indicate slower complex formation, high ones faster complex formation.

B1: 10G1 (antibody, V domains shown)
VH: EVKLEQSGGGLVQPGGSRKLSCAASGFTFSSFGMHWVRQAPEKGLEWVAYISGGSGTFYYADTVKGRFTISRDNPKNTLFLQMTSLRSEDTAIYYCARSTTVLDYWGQGTTLTVSS
VL: DIVLTQTPSSMYAFLGERVTIICKASQDINNYLNWVQQKPGKAPKTLIYHADRLADGVPSRFSGSGSGQDYSLTISSLEYEDMGIYYCLQYDDFPPFTFGSGTKLEIK
notes: Mouse monoclonal antibody from a hybridoma; kappa light chain; also called Antibody 10G1; anti-RON antibody 10G1
With B1, the Kd in assay [1] turned out to be 0.029 nM; in assay [5], 0.0294 nM. In addition, the dissociation rate constant (koff) in assay [2] is 0.000121 s⁻¹. In addition, in assay [3], the association rate constant (kon) came to 4.12e+06 M⁻¹ s⁻¹. Moreover, the “IC50 of inhibition of MSP induced ERK phosphorylation (AlphaLISA SureFire p-ERK, T47D cells)” value in assay [4] amounted to 2.8 nM.
